assay: soluble on expression in E. coli; label from the status in PepcDB or PDB records

Soluble on expression in E. coli, not soluble:
MKYFMGPHVWQRTIADLEALGHQRVDTFEQAEAYINTEPRPLRIPTIPESVGFVQHCFTGVNQLIDAHVITETGVRWANMAGGFAQPVAESALGLMLSQAHHHKAFALAGTWRVARELDRIQQWLHSVGEPRCVVIFGAGGIAKELIRLLEPFGMHVIAVNRSGRSVAGADETFAMKDAQGLWSRGDFIVNILPLTQETKGLVDRDVFAQMKPSAIFINVGRGATVVTDDLVDALQRGVIAGAGLEVVDPEPLPDSHALHSMPNCTITPHMAASDHVAELHVARIFDANAQAFTRGETMPTEVNPHLGY, MKYISPGFVDAHSHIGMIPDGLEWEFQEANDFYSPIAPHLRAVDGFDPYDEAFKEAIAGGVTTVATGPGSANVMGGIGLLAKTYEEGFEKIIKPEAFIKMALGPKRPREYKSKYPYPTTRMGTVALMRTWFKRAREFMEGKIKTDNIDEEEIEMLRLLARALKREIQVKIHLSTSPDEIYAAIRIIKEFNLNATIDHAFGSQLVADMLSREGIPVIYGPPMITRIASFFRYVDDKAPVLLFKKGVNVSIMTDHPVLPEKHLRLLAAVVARNGLSLDDALKLITINPAKALGIDRFVGSLEHHHHHH, MKYRDLREFLNLLEQQGELVRVKQEIDPYLEMAEIADRTLRKAGPAILFENPKGYQMPVLCNLFGTPKRVALGMGQENTQALRELGKLLAFLKEPEPPKGFKELLGQLPQWKQILNMPSKTRDNAACQQIVIEGDAVNLYDLPIMHCHEEDIAPLITWGLTITQGPHKKRQNLGIYRQQLIAKNKLIMRWLSHRGGALDFQEWKATYPDKPFPVSVAIGADPATILAAVTPIPDTLPEYAFAGLLRGHKTEVIKSISNQLDVPASAEIVLEGYIDVNETALEGPYGDHTGYYNEQEYFPVFTVTHITMRKDAIYHSTYTGRPPDEPAVLGEALNEVFIPILQKQFPEIVDFYLPPEGCSYRLAVVTIKKQYAGHAKRVMMGVWSFLRQFMYTKFVIVCDDDINARNWKDVIWAITTRCDPSRDTTLIENTPIDYLDFASPIAGLGSKMGIDATNKWNGETIREWGKPITKNQQVVQHIDELWDQLGLLEHHHHHH, MKYTLDQLNVYNPDGKAKSISIIHGLTISTSNTNSDTTGLTGCLYLTTKNQANDPSFSVYVIKQAQTVSTTQPNSTVVILNTELNPDISNYDQPLKTSYVTNINQSPDSDLFFQWDIPASGWTQKDVTNQFFENPIILETFDWNTMKKNFTRQFFDHIEPLQIGVKYWYFTASKPVSMTMESKYVSNLMYTATSVNTTGLIVNDFVFLEHVVNFPLDLTRVRTIGTLISAFPESSTINFVYKDDQSSSRQSFSTEQTHSLFDTYMQASSLTINATALIPGRFFCQYFGVTGDLLPPGTSTPSTPSTVETTMPSTTRISTTPSAAPHEFQLICFIIAFLLVL, MKYVASFSGGKDSAAMLLLILEKRLLLDEIVFIDTGLEFKEIYDIIDDFEKRINFKITRIKAEKTFEEYFYTVNKQGKRKGQIWGFPYTLGAWCNSRLKLAPANKYFNSIGEHKRYIGIAFDEPSRYRRLEKNCIAPLYEAKMTEKDCLKYLEKKGFYYDIHHRFKRTGCY

Soluble on expression in E. coli, soluble:
MKYLGLCTDLYELTMAQSYLYEGKTGTAVFSLFVRKLPEKRNFLISAGLETLVERIKNFKFGDEEIKYLKSLGIFKDDFLDYLKDFEFSGNVYAIPEGRIVFQNEPLVQVEAPIPEAQLLETLVINTIQFETMIASKAVRSYLVAKGKKLVDFGFRRAHGLEAGILAARASYIAGFDGTSNVEAGREFGIPVVGTMAHSYVMIFDKEEDAFRAFAKLYPKNAIFLIDTYDTIEAAKKVVDLAKEGVPVVGVRIDSGDIVKLSKEVRKILDENGLKNVRIIVSGGVDEYKIKEWFDRGAPIDAFGVGTKFITSADAPYFDIAYKLVEYEGKPKYKLSPGKKTFPYKRQVYRYYENGKMKYDETAKWESKREGEPLVELVMKNGKLIKELPSLKEIREVVMSELEKLPENYKDITKHYEYEVKILDWE, MKYLPQQDPQVFAAIEQERKRQHAKIELIASENFVSRAVMEAQGSVLTNKYAQGYPGRRYYGGCEYVDIVEELARERAKQLFGAEHANVQPHSGAQANMAVYFTVLEHGDTVLGMNLSHGGHLTHGSPVNFSGVQYNFVAYGVDPETHVIDYDDVREKARLHRPKLIVAAASAYPRIIDFAKFREIADEVGAYLMVDMAHIAGLVAAGLHPNPVPYAHFVTTTTHKTLRGPRGGMILCQEQFAKQIDKAIFPGIQGGPLMHVIAAKAVAFGEALQDDFKAYAKRVVDNAKRLASALQNEGFTLVSGGTDNHLLLVDLRPQQLTGKTAEKVLDEVGITVNKNTIPYDPESPFVTSGIRIGTAAVTTRGFGLEEMDEIAAIIGLVLKNVGSEQALEEARQRVAALTDGG
